Assay results: publication PMC10104637, “Phosphorylation of USP29 by CDK1 Governs TWIST1 Stability and Oncogenic Functions” (Advanced Science, 2023)

Molecular target: T1, GST-USP29 (UniProt Q9HBJ7 1-922)
T1 construct: USP29 cloned into pGEX-4T-1; also called purified GST-USP29; GST-USP29 WT; source: E. coli BL21, purified (Pierce Glutathione Agarose)
T1 sequence (looked up): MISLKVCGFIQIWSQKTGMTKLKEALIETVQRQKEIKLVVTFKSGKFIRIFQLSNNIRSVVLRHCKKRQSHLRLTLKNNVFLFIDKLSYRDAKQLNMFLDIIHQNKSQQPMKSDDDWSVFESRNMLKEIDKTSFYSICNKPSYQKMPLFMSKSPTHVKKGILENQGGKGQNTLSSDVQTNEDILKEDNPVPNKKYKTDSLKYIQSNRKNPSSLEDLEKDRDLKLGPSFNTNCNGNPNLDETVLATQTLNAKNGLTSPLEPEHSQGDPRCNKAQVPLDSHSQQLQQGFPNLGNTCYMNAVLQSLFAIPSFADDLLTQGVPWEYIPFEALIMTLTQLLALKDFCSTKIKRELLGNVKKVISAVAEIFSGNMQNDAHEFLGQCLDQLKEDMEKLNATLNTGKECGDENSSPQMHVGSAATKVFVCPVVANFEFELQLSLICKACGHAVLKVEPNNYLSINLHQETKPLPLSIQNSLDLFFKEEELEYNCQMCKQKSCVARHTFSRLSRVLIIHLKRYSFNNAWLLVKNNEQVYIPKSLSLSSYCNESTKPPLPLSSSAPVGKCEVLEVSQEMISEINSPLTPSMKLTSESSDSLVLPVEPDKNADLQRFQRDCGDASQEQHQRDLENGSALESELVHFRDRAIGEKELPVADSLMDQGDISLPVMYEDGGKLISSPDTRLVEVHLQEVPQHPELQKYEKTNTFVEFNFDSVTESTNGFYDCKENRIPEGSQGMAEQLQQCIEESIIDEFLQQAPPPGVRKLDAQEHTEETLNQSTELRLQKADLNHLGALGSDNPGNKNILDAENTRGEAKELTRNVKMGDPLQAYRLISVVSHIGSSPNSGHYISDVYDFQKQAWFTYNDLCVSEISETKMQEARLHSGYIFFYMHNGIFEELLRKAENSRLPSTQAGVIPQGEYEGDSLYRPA
Assay: pull-down; GST or GST-USP29 bound to Pierce Glutathione Agarose incubated with the purified His-tagged protein overnight at 4 °C; beads washed four times with PBS; western blot
Conditions: both partners purified

B1: His-TWIST1 (natural protein, UniProt Q15672 1-202, looked up)
chain: MMQDVSSSPVSPADDSLSNSEEEPDRQQPPSGKRGGRKRRSSRRSAGGGAGPGGAAGGGVGGGDEPGSPAQGKRGKKSAGCGGGGGAGGGGGSSSGGGSPQSYEELQTQRVMANVRERQRTQSLNEAFAALRKIIPTLPSDKLSKIQTLKLAARYIDFLYQVLQSDELDSKMASCSYVAHERLSYAFSVWRMEGAWSMSASH
notes: TWIST1 cloned into PET28A; also called PET28A-TWIST1; source: E. coli BL21, purified
B1: binds.
